From patent US20260097138A1, “BIOMATERIAL COATED NANOSTRUCTURES FOR PHOTOACOUSTIC IMAGING AND PHOTOTHERMAL THERAPY OF TUMOR LESIONS” (OSPEDALE SAN RAFFAELE S.R.L., priority 2022, published 2026)
Each block holds one molecule with its values, some of them ahead of it. Starred links: 1 amine or outer side, 2 acyl side, 3 side chain; linkers in the order of their positions; H or OH if unused. Positions of bridges follow the written chain, without caps; N, C: chain ends. Non-standard residues stand in square brackets, D forms with d. Residues, ends and D or L forms follow the SMILES beside them. βAsp = O=C(O)[C@H](CC(=O)[*:2])N[*:1]; dPhg = N[C@@H](C(=O)O)c1ccccc1; Phg = N[C@H](C(=O)O)c1ccccc1

Legend:
human integrin α5β1 = biological target: T1, human integrin α5β1 (Homo sapiens, UniProt P05556+P08648); experiment: α5β1 integrin binding assay with HRP conjugates; settings: for binding of HRP conjugate to plates coated with α5β1: no detergent in buffers, OPD substrate
T1 construct: purchased Immunological Sciences (Rome, Italy)
Method: The final products were called Iso4-HRP and ARA-HRP. The conjugates were diluted (range 0-400 nM) in 25 mM Tris-HCl, pH 7.4, containing 150 mM sodium chloride, 1 mM magnesium chloride, 1 mM manganese chloride and 1% BSA (binding buffer-2) and added to 96-well plate polyvinyl chloride (PVC) microtiter plates (Carlo Erba, cod. FA5280100) coated with or without α5β1 (4 μg/ml) and left to incubate for 2 h. The plates were washed with 25 mM Tris-HCl, pH 7.4, containing 150 mM of sodium chloride, 1 mM of magnesium chloride, 1 mM of manganese chloride, and bound peroxidase was detected by adding a chromogenic solution (o-phenylenediamine dihydrochloride, OPD). The chromogenic reaction was stopped by adding 1 N sulfuric acid. The absorbance at 490 nm was then measured using a microtiter plate reader. The effect of human urine (from a healthy donor) on the binding of Iso4-HRP was studied as described above by mixing Iso4-HRP (300 nM final concentration) and various amounts of urine diluted in binding buffer-2.

[1] = system: MB49-Luc derived orthotopic bladder tumor; experiment: PAI of orthotopic MB49-Luc bladder tumor after intravesical instillation; format: in vivo, mice; settings: intravesical co-administration
Method: Murine orthotopic bladder tumor model: All procedures and studies involving mice were approved by the Institutional Animal Care and Use Committee of San Raffaele Scientific Institute and performed according to the prescribed guidelines (IACUC, approval number 942). Female albino C57BL/6J mice (9 weeks old, weighing about 20 g, Charles River Laboratories, Italy) were anesthetized with ketamine (80 mg/kg) and xylazine (15 mg/kg) and kept in dorsal position. Using a 24-gauge catheter, the bladder of each mouse was emptied and instilled with or without MB49-Luc cells (10^5 cells/100 μl in DPBS). Thirty minutes later the catheter was removed, and mice were allowed to recover and returned to their cage. Tumor growth was monitored by measuring the tumor volume through US imaging (see below) and in vivo bioluminescent quantification after administration of luciferin (15 mg/kg, intra peritoneum) using the non-invasive In Vivo Imaging System (IVIS, PerkinElmer, USA).
US and PAI of GNRs@Chit and GNRs@Chit-Iso4: High-resolution US and PA imaging have been acquired using the Vevo LAZR-X platform (FUJIFILM VisualSonics, Inc., Toronto, ON, Canada). The imaging platform includes a high frequency US system (Vevo 3100) combined with an Nd:YAG nano-second pulsed laser with repetition rate of 20 Hz. The linear US transducer array Mx 550D consists of 256 elements with a nominal center frequency of 40 MHz (25-55 MHz bandwidth) and a spatial resolution of 40 μm with a maximum imaging depth of 15 mm. Light from the laser is delivered to the tissue through optical fibers mounted on either side of the transducer. During volumetric US-PA acquisitions, a stepper motor is used for the linear translation of the US transducer and optical fibers along the sample. The linear stepper motor moves in steps of a minimum of 0:1 mm while capturing 2-D parallel images, for a maximum 3D range distance of 6.4 cm.
3D B mode scan was carried out for in vitro (drop) and in vivo (mouse bladder) studies. The photoacoustic spectra between 680 nm and 970 nm were scanned with a step size of 5 nm; for the in vivo studies (murine bladder) the 3D multispectral PA scans were acquired selecting PA spectral curve of tissue components melanin, deoxy- and oxy-generated blood, and GNRs; the processed wavelengths (680; 722; 764; 810; 924; 970 nm) were automatically selected from the spectral curve used to spectrally unmix the GNRs signal from other endogenous tissue chromophore signals such as oxy, deoxy hemoglobin. The algorithm reported by Luke et al was used to select these wavelengths which is ideal for separating the signal from GNRs from other endogenous absorbers.
Data analyses were conducted using the Vevo® Lab software; volumes of interest were obtained by manually drawing Volumes of Interest (VOIs) on 3D B-mode images. GNRs, melanin, oxy- and deoxy-hemoglobin content were estimated through spectral unmixing analyses of the spectroscopic data.

5637 cells [2] = experiment: Cell adhesion assay on coated microtiter plates; format: cell-based, human; settings: plates coated with 250 μg/ml GNRs
Method: (§1) The plates were washed and blocked with 2% BSA in DMEM or RPMI-1640 (200 μl/well, 1 h). MB49-Luc and 5637 cells were detached with DPBS-E, washed twice with DPBS, and suspended in DMEM or RPMI-1640 containing 0.1% BSA (binding buffer-3), and added to the coated-plates (1.5×10^5 cells/well, 100 μl). After 1-2 h of incubation at 37° C., 5% CO2, the plates were washed with binding buffer-3. Adherent cells were fixed and stained with 0.5% crystal violet in 20% methanol. After washing with water, the dye was extracted from cells using a 10% acetic acid solution (140 μl/well) and the absorbance at 570 nm was measured using a microplate reader.

MB49-Luc cells [3] = experiment: Cell adhesion assay on coated microtiter plates; format: cell-based, murine; settings: MB49-Luc cells; plates coated with 250 μg/ml GNRs
Method: as §1

MB49-Luc cells [4] = experiment: Binding of Iso4-Qdot / ARA-Qdot to cells (FACS); format: cell-based, murine; settings: flow cytometry, 2 h at 37° C.
Method: (§2) The binding of Iso4-Qdot and ARA-Qdot to MB49-Luc and 5637 cells was assessed through FACS and fluorescence microscopy experiments. FACS analysis was carried out as follows: the cells were detached with DPBS containing 5 mM EDTA pH 8.0 (DPBS-E), washed with DPBS, and suspended in 25 mM Hepes buffer, pH 7.4, containing 150 mM sodium chloride, 1 mM magnesium chloride, 1 mM manganese chloride, 1% BSA (binding buffer-1) and Iso4- or ARA-Qdot (range 30-0 nM, 5×10^5 cells/100 μl tube). After 2 h of incubation at 37° C., the cells were washed with binding buffer-1 without BSA and fixed with 4% formaldehyde. Bound fluorescence was detected using a CytoFLEX S cytofluorimeter (Beckman Coulter). The binding of Iso4-Qdot and ARA-Qdot to living 5637 cells was analyzed as follows: 5637 cells were cultured in a 96-well clear bottom black plate (5×10^4 cells/well) for 48 h, 5% CO2, 37° C. The plates were washed with binding buffer-1 and incubated with Iso4-Qdot or ARA-Qdot solution (30 nM in binding buffer-1) for 2 h at 37° C., 5% CO2. The cells were then washed with binding buffer-1, and fixed with 3% paraformaldehyde and 2% sucrose for 20 min. Bound fluorescence was acquired using the Cellomics ArrayScan XTI Studio Scan (Thermo Fischer Scientific) system.

5637 cells [5] = experiment: Binding of Iso4-Qdot / ARA-Qdot to cells (FACS, fluorescence microscopy); format: cell-based, human; settings: flow cytometry and fluorescence microscopy, 2 h at 37° C.
Method: as §2

[6] = biological target: mouse integrin α5 subunit on the surface of MB49-Luc cells (mouse) (UniProt P11688); experiment: flow cytometry on MB49-Luc cells, 5 µg/ml antibody
[7] = biological target: human integrin α5 subunit on the surface of human urothelial and bladder carcinoma cells (human) (UniProt P08648); experiment: flow cytometry on RT112 bladder carcinoma cells, 5 µg/ml antibody
[8] = biological target: human integrin α5 subunit on the surface of human urothelial and bladder carcinoma cells (human) (UniProt P08648); experiment: flow cytometry on 5637 bladder carcinoma cells, 5 µg/ml antibody
[9] = biological target: human integrin α5 subunit on the surface of human urothelial and bladder carcinoma cells (human) (UniProt P08648); experiment: flow cytometry on HBLAK primary urothelial cells, 5 µg/ml antibody
[10] = biological target: human integrin α5 subunit on the surface of human urothelial and bladder carcinoma cells (human) (UniProt P08648); experiment: flow cytometry on HT1376 bladder carcinoma cells, 5 µg/ml antibody
[11] = biological target: human integrin α5 subunit on the surface of human urothelial and bladder carcinoma cells (human) (UniProt P08648); experiment: flow cytometry on PCS-420-010 primary urothelial cells, 5 µg/ml antibody
[12] = biological target: human integrin α5 subunit on the surface of human urothelial and bladder carcinoma cells (human) (UniProt P08648); experiment: flow cytometry on RT4 bladder carcinoma cells, 5 µg/ml antibody
[13] = biological target: mouse integrin β1 subunit on the surface of MB49-Luc cells (mouse) (UniProt P09055); experiment: flow cytometry on MB49-Luc cells, 5 µg/ml antibody
[14] = biological target: human integrin β1 subunit on the surface of human urothelial and bladder carcinoma cells (human) (UniProt P05556); experiment: flow cytometry on RT112 bladder carcinoma cells, 5 µg/ml antibody
[15] = biological target: human integrin β1 subunit on the surface of human urothelial and bladder carcinoma cells (human) (UniProt P05556); experiment: flow cytometry on 5637 bladder carcinoma cells, 5 µg/ml antibody
[16] = biological target: human integrin β1 subunit on the surface of human urothelial and bladder carcinoma cells (human) (UniProt P05556); experiment: flow cytometry on HBLAK primary urothelial cells, 5 µg/ml antibody
[17] = biological target: human integrin β1 subunit on the surface of human urothelial and bladder carcinoma cells (human) (UniProt P05556); experiment: flow cytometry on HT1376 bladder carcinoma cells, 5 µg/ml antibody
[18] = biological target: human integrin β1 subunit on the surface of human urothelial and bladder carcinoma cells (human) (UniProt P05556); experiment: flow cytometry on PCS-420-010 primary urothelial cells, 5 µg/ml antibody
[19] = biological target: human integrin β1 subunit on the surface of human urothelial and bladder carcinoma cells (human) (UniProt P05556); experiment: flow cytometry on RT4 bladder carcinoma cells, 5 µg/ml antibody
[20] = biological target: α5β1 integrin on murine MB49-Luc bladder cancer cells (mouse, UniProt P11688 45-1053; P09055 21-798); experiment: cell-based or functional assay
[21] = biological target: α5β1 integrin on human 5637 bladder cancer cells (human, UniProt P08648 42-1049; P05556 21-798); experiment: cell-based or functional assay
Sequence of α5β1 integrin on human 5637 bladder cancer cells (P08648 42-1049, chain 1 of 2): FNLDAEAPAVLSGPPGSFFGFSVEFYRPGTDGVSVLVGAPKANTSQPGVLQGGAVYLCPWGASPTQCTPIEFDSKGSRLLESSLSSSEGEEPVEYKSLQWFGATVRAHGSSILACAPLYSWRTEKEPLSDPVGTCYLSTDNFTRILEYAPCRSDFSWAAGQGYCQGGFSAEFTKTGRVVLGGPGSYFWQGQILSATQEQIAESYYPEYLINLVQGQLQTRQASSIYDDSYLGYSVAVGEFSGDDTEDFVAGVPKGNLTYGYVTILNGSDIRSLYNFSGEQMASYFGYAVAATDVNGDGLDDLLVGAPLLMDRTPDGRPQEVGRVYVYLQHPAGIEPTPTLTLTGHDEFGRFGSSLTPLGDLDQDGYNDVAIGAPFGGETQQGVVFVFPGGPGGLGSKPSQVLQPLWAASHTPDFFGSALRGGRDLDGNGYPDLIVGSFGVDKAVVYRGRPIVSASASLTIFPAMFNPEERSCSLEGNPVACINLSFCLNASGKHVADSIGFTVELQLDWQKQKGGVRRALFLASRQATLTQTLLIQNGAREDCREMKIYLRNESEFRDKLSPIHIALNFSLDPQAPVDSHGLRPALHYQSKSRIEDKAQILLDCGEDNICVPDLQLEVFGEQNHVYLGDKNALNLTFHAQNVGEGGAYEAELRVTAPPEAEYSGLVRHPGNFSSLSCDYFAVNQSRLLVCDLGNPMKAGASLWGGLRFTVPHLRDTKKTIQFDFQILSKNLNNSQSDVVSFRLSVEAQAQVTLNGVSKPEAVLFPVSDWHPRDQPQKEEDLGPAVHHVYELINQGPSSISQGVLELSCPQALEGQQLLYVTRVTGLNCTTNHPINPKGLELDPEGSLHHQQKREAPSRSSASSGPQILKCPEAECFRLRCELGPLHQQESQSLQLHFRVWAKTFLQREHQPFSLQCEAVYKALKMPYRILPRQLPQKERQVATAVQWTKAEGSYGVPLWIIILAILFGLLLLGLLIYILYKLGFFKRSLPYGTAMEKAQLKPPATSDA
Sequence of α5β1 integrin on human 5637 bladder cancer cells (P05556 21-798, chain 2 of 2): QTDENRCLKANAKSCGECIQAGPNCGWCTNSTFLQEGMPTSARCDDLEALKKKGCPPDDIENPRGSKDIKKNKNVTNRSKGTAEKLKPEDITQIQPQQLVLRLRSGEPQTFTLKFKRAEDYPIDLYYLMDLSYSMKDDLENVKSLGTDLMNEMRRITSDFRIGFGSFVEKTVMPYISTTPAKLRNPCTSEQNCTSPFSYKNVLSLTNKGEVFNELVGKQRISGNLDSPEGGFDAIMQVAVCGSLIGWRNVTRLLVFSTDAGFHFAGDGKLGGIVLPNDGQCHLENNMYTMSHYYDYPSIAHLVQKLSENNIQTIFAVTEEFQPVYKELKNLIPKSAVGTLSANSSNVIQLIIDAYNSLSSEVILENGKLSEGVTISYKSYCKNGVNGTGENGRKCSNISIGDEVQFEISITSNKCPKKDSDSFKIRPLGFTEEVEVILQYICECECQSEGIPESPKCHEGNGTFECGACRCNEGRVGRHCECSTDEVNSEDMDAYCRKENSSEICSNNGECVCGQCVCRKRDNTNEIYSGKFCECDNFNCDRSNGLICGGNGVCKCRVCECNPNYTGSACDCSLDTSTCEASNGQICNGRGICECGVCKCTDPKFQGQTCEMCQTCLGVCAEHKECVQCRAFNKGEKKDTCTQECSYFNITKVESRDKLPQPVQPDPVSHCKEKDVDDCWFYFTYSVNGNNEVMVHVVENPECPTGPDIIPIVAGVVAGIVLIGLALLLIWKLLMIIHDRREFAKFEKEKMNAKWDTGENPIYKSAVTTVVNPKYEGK

T1 sequence (P08648 42-894 limits assumed): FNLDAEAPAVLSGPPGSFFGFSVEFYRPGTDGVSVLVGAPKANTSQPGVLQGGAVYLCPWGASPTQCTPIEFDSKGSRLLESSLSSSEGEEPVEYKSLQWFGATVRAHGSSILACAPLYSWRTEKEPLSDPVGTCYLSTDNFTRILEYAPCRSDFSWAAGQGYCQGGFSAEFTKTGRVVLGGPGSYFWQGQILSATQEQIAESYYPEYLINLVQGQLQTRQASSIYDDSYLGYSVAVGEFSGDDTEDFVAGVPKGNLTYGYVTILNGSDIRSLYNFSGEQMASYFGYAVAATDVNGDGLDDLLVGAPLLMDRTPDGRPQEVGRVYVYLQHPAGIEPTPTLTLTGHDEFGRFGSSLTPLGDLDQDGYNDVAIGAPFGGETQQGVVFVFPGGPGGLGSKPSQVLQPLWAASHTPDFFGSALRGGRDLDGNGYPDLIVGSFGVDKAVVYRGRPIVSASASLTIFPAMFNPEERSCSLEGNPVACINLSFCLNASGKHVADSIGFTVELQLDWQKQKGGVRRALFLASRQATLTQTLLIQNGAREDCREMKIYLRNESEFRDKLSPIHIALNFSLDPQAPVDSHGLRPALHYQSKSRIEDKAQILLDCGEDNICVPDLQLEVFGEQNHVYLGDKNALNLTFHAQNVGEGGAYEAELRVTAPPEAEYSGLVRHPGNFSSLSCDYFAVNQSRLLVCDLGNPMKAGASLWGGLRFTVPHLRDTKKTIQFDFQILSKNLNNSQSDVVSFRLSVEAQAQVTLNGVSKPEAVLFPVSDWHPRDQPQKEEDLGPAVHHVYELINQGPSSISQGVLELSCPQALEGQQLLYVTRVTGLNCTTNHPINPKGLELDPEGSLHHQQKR
T1 sequence (P08648 895-1049 partner limits assumed): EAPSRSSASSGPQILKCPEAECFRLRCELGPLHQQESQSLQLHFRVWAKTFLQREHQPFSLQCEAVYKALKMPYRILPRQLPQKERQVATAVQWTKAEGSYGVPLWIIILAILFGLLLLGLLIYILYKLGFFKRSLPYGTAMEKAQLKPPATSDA
T1 sequence (P05556 21-798): as the sequence (P05556 21-798, chain 2 of 2) above
Sequence of human integrin α5 subunit on the surface of human urothelial and bladder carcinoma cells (human) (P08648 42-1049): as the sequence (P08648 42-1049, chain 1 of 2) above
Sequence of human integrin β1 subunit on the surface of human urothelial and bladder carcinoma cells (human) (P05556 21-798): as the sequence (P05556 21-798, chain 2 of 2) above
Sequence of α5β1 integrin on murine MB49-Luc bladder cancer cells (P11688 45-1053, chain 1 of 2): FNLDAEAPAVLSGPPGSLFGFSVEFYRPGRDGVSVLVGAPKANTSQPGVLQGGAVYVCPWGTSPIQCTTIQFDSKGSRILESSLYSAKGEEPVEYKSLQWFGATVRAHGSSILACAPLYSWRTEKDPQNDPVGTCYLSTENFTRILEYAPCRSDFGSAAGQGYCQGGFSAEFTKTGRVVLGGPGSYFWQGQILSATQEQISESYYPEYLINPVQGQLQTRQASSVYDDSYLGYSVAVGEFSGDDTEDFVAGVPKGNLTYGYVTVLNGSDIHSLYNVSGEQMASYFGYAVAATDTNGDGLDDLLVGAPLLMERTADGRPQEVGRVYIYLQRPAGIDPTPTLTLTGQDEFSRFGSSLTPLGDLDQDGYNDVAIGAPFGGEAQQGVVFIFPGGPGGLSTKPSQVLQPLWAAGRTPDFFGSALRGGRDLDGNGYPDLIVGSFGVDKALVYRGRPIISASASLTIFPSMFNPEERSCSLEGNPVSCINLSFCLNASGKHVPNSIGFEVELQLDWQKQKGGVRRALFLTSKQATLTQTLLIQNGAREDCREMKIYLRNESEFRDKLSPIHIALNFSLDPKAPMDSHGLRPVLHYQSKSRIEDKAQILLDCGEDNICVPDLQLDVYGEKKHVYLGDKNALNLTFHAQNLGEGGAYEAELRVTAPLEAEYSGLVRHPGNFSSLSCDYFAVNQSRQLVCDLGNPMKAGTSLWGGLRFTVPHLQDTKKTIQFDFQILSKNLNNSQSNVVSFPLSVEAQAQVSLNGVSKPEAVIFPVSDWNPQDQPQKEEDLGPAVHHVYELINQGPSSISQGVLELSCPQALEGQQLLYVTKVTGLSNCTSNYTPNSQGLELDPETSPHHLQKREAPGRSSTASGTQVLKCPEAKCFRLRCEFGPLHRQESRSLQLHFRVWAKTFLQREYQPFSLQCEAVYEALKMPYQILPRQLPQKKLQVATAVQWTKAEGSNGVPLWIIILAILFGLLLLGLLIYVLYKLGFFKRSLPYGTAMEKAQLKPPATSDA
Sequence of α5β1 integrin on murine MB49-Luc bladder cancer cells (P09055 21-798, chain 2 of 2): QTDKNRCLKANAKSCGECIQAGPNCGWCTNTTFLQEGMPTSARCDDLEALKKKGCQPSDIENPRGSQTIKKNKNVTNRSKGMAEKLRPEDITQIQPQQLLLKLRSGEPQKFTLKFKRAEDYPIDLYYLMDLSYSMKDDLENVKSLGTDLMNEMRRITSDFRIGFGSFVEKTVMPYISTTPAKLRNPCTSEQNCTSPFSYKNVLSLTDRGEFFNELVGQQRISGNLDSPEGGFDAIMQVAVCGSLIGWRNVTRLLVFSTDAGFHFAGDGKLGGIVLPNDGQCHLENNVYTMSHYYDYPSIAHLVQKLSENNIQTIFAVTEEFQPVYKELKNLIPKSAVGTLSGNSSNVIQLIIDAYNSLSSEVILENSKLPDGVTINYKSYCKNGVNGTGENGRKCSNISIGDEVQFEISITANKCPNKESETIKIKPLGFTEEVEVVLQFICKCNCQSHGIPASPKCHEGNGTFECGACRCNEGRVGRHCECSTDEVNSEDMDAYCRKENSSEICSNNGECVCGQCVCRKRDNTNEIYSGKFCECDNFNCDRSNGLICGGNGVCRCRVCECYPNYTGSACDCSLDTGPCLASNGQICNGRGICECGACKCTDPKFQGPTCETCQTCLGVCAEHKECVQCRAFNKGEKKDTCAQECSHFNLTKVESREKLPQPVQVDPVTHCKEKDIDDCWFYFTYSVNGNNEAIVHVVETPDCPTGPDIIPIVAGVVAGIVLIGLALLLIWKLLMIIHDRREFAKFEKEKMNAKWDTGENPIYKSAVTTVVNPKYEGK
Sequence of mouse integrin α5 subunit on the surface of MB49-Luc cells (mouse) (P11688 45-1053): as the sequence (P11688 45-1053, chain 1 of 2) above
Sequence of mouse integrin β1 subunit on the surface of MB49-Luc cells (mouse) (P09055 21-798): as the sequence (P09055 21-798, chain 2 of 2) above

Molecule: N=C(N)NCCC[C@@H]1NC(=O)CNC(=O)C[C@@H](C(=O)O)NC(=O)[C@H](c2ccccc2)NC(=O)[C@H](CS)NC(=O)CNC1=O [Iso4, c(CphgisoDGRG), reference compound] (GRGC[Phg]D-OH; lactam N-6)
effect of co-administered excess free peptide on binding of GNR@Chit-Iso4 to MB49-Luc tumors [1]: reduced | effect of excess free peptide on cell adhesion to GNRs@Chit-Iso4-coated plates (5637 cells [2]): completely inhibited cell adhesion | effect of excess free peptide on cell adhesion to GNRs@Chit-Iso4-coated plates (MB49-Luc cells [3]): completely inhibited cell adhesion

Molecule: Iso4-Qdot: Iso4 coupled to fluorescent nanoparticles (Quantum Dots, Qdot) via the sulfhydryl group of the cysteine
binding of Qdot conjugate to cells (MB49-Luc cells [4]): bound these cells | binding of Qdot conjugate to cells (5637 cells [5]): bound these cells

Molecule: ARA-Qdot: c(CGARAG) peptide coupled to Qdot, negative control (cyclo(CGARAG); not fully specified (residue 1); also: coupled to Qdot605 quantum dot via Cys thiol)
binding of Qdot conjugate to cells (MB49-Luc cells [4]): but not the ARA-Qdot, bound these cells | binding of Qdot conjugate to cells (5637 cells [5]): but not the ARA-Qdot, bound these cells

Molecule: ARA-HRP: HRP control conjugate using the ARA peptide instead of Iso4
binding of HRP conjugate to plates coated with α5β1 (human integrin α5β1): but not ARA-HRP, could bind α5β1 in a dose dependent manner

Molecule: anti-α5 integrin mouse monoclonal antibody, clone P1D6
Fold (median fluorescence intensity over isotype control) [7]: 5.8 fold | Fold (median fluorescence intensity over isotype control) [8]: 1.9 fold | Fold (median fluorescence intensity over isotype control) [9]: 2.1 fold | Fold (median fluorescence intensity over isotype control) [10]: 4.1 fold | Fold (median fluorescence intensity over isotype control) [11]: 1.5 fold | Fold (median fluorescence intensity over isotype control) [12]: 6 fold

B1: GNRs@Chit-Iso4 (gold nanorods coated with thiolated chitosan, carrying Iso4 via maleimide-PEG12-NHS) (other)
peptide: cyclo(C[dPhg][βAsp]GRG)
modifications: not fully specified (residue 1); also: Cys thiol coupled via maleimide-PEG12-NHS linker to thiolated-chitosan-coated gold nanorods
effective concentration 50 (EC50) of cell adhesion to plates coated with GNRs@Chit-Iso4 [20]: 0.73 µg/mL | effective concentration 50 (EC50) of cell adhesion to plates coated with GNRs@Chit-Iso4 [21]: 1.3 µg/mL

Further lines, with some results ahead:

recovery of binding to α5β1 in human urine (human integrin α5β1; in 90% of urine, Iso4-HRP 300 nM): about 55%
Molecule: Iso4-HRP: Iso4 conjugated to maleimide-activated horseradish peroxidase via thiol group
binding of HRP conjugate to plates coated with α5β1 (human integrin α5β1): could bind α5β1 in a dose dependent manner

Fold (mean fluorescence intensity over isotype control) [6]: 3.79 fold
Molecule: anti-α5 integrin hamster monoclonal antibody, clone HMα5-1

Fold (mean fluorescence intensity over isotype control) [13]: 8.02 fold
Molecule: anti-β1 integrin hamster monoclonal antibody, clone HMβ1-1

Fold (median fluorescence intensity over isotype control) [14]: 38.7 fold | Fold (median fluorescence intensity over isotype control) [15]: 40.5 fold | Fold (median fluorescence intensity over isotype control) [16]: 0.8 fold | Fold (median fluorescence intensity over isotype control) [17]: 11.9 fold | Fold (median fluorescence intensity over isotype control) [18]: 1.2 fold | Fold (median fluorescence intensity over isotype control) [19]: 18.6 fold
Molecule: anti-β1 integrin mouse monoclonal antibody, clone P5D2
